# Data reported in patent US20140274782A1, “AFFINITY REAGENTS AND METHODS FOR DETECTION, PURIFICATION, AND PROTEOMIC ANALYSIS OF METHYLATED PROTEINS” (The Board of Trustees of the Leland Stanford Junior …, priority 2013, published 2014).
# T1: G9a and GLP (Homo sapiens, UniProt Q96KQ7+Q9H9B1)
# T1 sequence (Q96KQ7 2-1210 limits assumed): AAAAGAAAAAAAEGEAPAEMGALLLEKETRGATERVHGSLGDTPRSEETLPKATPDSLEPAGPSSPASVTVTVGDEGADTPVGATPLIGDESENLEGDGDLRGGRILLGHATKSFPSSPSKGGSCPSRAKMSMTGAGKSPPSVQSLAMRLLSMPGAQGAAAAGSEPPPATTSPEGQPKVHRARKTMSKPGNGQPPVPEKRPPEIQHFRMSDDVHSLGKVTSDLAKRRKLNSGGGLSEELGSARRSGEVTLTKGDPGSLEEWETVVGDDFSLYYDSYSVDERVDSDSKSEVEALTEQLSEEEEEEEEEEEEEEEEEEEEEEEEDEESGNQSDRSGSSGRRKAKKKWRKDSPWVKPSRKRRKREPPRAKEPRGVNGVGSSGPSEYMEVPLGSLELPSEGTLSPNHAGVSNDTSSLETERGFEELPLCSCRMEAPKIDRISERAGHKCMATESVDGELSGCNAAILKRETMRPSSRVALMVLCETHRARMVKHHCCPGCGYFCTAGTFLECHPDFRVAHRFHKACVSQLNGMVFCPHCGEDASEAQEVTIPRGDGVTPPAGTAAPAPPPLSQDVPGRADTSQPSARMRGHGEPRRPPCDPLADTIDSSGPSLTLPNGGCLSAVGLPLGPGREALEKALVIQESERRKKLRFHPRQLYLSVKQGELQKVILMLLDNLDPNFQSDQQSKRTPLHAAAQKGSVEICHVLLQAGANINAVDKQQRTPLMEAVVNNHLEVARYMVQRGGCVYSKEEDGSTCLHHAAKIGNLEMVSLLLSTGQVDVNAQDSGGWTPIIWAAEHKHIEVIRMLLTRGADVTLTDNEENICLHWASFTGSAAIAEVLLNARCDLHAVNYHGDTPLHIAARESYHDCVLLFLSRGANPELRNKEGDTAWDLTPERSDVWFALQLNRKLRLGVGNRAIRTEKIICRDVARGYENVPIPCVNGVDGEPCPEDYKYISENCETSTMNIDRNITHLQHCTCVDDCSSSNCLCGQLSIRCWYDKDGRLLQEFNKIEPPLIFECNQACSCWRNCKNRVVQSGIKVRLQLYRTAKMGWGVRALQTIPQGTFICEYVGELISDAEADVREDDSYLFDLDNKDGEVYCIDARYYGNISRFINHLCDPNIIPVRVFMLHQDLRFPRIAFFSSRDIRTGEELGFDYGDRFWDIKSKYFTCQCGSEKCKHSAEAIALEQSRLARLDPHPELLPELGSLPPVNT
# T1 sequence (Q9H9B1 2-1298 limits assumed): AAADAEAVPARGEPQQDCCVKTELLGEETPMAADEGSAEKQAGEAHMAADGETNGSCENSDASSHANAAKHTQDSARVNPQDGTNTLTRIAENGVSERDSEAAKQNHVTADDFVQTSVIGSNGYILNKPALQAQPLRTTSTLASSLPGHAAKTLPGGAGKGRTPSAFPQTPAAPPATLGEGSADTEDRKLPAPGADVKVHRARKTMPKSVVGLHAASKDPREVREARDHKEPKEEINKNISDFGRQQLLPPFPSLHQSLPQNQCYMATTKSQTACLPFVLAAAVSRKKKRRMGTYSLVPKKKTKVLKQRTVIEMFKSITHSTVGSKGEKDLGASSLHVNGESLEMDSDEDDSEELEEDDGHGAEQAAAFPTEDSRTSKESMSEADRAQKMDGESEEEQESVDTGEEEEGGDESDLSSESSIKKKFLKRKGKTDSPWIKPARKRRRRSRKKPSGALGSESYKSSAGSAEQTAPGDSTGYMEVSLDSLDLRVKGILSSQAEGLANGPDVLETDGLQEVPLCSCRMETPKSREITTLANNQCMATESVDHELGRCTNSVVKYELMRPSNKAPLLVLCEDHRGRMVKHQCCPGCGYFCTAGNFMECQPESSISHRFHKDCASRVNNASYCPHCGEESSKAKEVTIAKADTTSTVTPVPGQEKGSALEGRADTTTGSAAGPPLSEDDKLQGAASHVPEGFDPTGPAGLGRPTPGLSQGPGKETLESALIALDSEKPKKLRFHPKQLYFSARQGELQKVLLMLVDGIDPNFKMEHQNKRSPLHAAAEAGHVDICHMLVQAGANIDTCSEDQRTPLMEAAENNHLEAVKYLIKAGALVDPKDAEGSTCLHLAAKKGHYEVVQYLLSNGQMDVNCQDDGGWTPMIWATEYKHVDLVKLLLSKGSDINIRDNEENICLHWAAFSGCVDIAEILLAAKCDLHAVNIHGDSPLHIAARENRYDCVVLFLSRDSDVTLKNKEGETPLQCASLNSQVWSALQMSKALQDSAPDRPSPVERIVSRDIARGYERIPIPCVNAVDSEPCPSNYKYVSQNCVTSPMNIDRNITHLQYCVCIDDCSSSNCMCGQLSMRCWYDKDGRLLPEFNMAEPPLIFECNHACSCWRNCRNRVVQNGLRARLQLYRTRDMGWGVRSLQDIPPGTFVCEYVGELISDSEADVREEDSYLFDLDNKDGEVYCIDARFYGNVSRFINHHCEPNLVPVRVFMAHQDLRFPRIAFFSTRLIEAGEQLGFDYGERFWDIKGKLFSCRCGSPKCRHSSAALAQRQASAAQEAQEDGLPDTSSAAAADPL
# How the values were obtained:
# 3×MBT domain of L3MBTL1 = assay: Triple SILAC pull-down, 3xMBT/3xMBTD355N ratio (cytoplasmic, nuclear and chromatin fractions of 293T cells); assay type: binding, human; settings: SILAC ratio, pull-down 3xMBT vs 3xMBTD355N; for 3xMBT/D355N UNC Heavy: experiment with UNC0638 in heavy SILAC media; for 3xMBT/D355N UNC Light: experiment with UNC0638 in light SILAC media;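 for all read-outs here: proteins quantified with MaxQuant, requiring at least two unique peptides and quantification in both label directions, normalized to the mean of proteins from a digested loading control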
# G9a and GLP = target: T1, G9a and GLP; assay: Triple SILAC pull-down after UNC0638 treatment of 293T cells, DMSO/UNC0638 ratio of protein captured by 3×MBT; assay type: cell-based; parameters: cells were treated for 24 hours with UNC0638 at 2.5 μM or DMSO vehicle control; endogenous in cells; host or cells: HEK 293T; settings: for Relative to UNC0638 UNC Heavy / Relative to UNC0638 UNC Light: SILAC ratio DMSO/UNC0638 of protein pulled down with 3xMBT; for Relative to UNC0638 UNC Heavy: UNC0638 in heavy SILAC media; for Relative to UNC0638 UNC Light: UNC0638 in light SILAC media; for Relative to UNC0638 Average: average of UNC Light and UNC Heavy experiments;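 for all read-outs here: mass spectrometry (Q-Exactive) SILAC quantitation, DMSO/UNC0638 ratio computed after subtracting 3×MBTD355N mutant pull-down background, only proteins with at least twofold 3×MBT over mutant signal considered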
Relative to UNC0638 UNC Heavy (G9a and GLP) [log base 2],Relative to UNC0638 UNC Light (G9a and GLP) [log base 2],Relative to UNC0638 Average (G9a and GLP) [log base 2],Molecule,3xMBT/D355N UNC Heavy (3×MBT domain of L3MBTL1) [log base 2],3xMBT/D355N UNC Light (3×MBT domain of L3MBTL1) [log base 2]
0.11,0.24,0.17,"RBMX (protein, UniProt P38159 1-391, looked up) RNA-binding motif protein, X …: MVEADRPGKLFIGGLNTETNEKALEAVFGKYGRIVEVLLMKDRETNKSRGFAFVTFESPADAKDAARDMNGKSLDGKAIKVEQATKPSFESGRRGPPPPPRSRGPPRGLRGGRGGSGGTRGPPSRGGHMDDGGYSMNFNMSSSRGPLPVKRGPPPRSGGPPPKRSAPSGPVRSSSGMGGRAPVSRGRDSYGGPPRREPLPSRRDVYLSPRDDGYSTKDSYSSRDYPSSRDTRDYAPPPRDYTYRDYGHSSSRDDYPSRGYSDRDGYGRDRDYSDHPSGGSYRDSYESYGNSRSAPPTRGPPPSYGGSSRYDDYSSSRDGYGGSRDSYSSSRSDLYSSGRDRVGRQERGLPPSMERGYPPPRDSYSSSSRGAPRGGGRGGSRSDRGGGRSRY",3.98,4.49
0.13,0.21,0.17,"PCBP2 (protein, UniProt Q15366 1-365, looked up) Poly(rC)-binding protein 2: MDTGVIEGGLNVTLTIRLLMHGKEVGSIIGKKGESVKKMREESGARINISEGNCPERIITLAGPTNAIFKAFAMIIDKLEEDISSSMTNSTAASRPPVTLRLVVPASQCGSLIGKGGCKIKEIRESTGAQVQVAGDMLPNSTERAITIAGIPQSIIECVKQICVVMLETLSQSPPKGVTIPYRPKPSSSPVIFAGGQDRYSTGSDSASFPHTTPSMCLNPDLEGPPLEAYTIQGQYAIPQPDLTKLHQLAMQQSHFPMTHGNTGFSGIESSSPEVKGYWGLDASAQTTSHELTIPNDLIGCIIGRQGAKINEIRQMSGAQIKIANPVEGSTDRQVTITGSAASISLAQYLINVRLSSETGGMGSS",1.88,2.41
0.11,0.23,0.17,"ILF3 (protein, UniProt Q12906 1-894, looked up) Interleukin enhancer-binding …: MRPMRIFVNDDRHVMAKHSSVYPTQEELEAVQNMVSHTERALKAVSDWIDEQEKGSSEQAESDNMDVPPEDDSKEGAGEQKTEHMTRTLRGVMRVGLVAKGLLLKGDLDLELVLLCKEKPTTALLDKVADNLAIQLAAVTEDKYEILQSVDDAAIVIKNTKEPPLSLTIHLTSPVVREEMEKVLAGETLSVNDPPDVLDRQKCLAALASLRHAKWFQARANGLKSCVIVIRVLRDLCTRVPTWGPLRGWPLELLCEKSIGTANRPMGAGEALRRVLECLASGIVMPDGSGIYDPCEKEATDAIGHLDRQQREDITQSAQHALRLAAFGQLHKVLGMDPLPSKMPKKPKNENPVDYTVQIPPSTTYAITPMKRPMEEDGEEKSPSKKKKKIQKKEEKAEPPQAMNALMRLNQLKPGLQYKLVSQTGPVHAPIFTMSVEVDGNSFEASGPSKKTAKLHVAVKVLQDMGLPTGAEGRDSSKGEDSAEETEAKPAVVAPAPVVEAVSTPSAAFPSDATAEQGPILTKHGKNPVMELNEKRRGLKYELISETGGSHDKRFVMEVEVDGQKFQGAGSNKKVAKAYAALAALEKLFPDTPLALDANKKKRAPVPVRGGPKFAAKPHNPGFGMGGPMHNEVPPPPNLRGRGRGGSIRGRGRGRGFGGANHGGYMNAGAGYGSYGYGGNSATAGYSQFYSNGGHSGNASGGGGGGGGGSSGYGSYYQGDNYNSPVPPKHAGKKQPHGGQQKPSYGSGYQSHQGQQQSYNQSPYSNYGPPQGKQKGYNHGQGSYSYSNSYNSPGGGGGSDYNYESKFNYSGSGGRSGGNSYGSGGASYNPGSHGGYGGGSGGGSSYQGKQGGYSQSNYNSPGSGQNYSGPPSSYQSSQGGYGRNADHSMNYQYR",3.53,4.28
0.26,0.09,0.17,"PALLD (protein, UniProt Q8WX93 1-1383, looked up) Palladin: MSGTSSHESFYDSLSDMQEESKNTDFFPGLSAFLSQEEINKSLDLARRAIADSETEDFDSEKEISQIFSTSPASLCEHPSHKETKLGEHASRRPQDNRSTPVQPLAEKQTKSISSPVSKRKPAMSPLLTRPSYIRSLRKAEKRGAKTPSTNVKPKTPHQRKGGPQSQLCDKAANLIEELTSIFKAAKPRNRSPNGESSSPDSGYLSPKNQPSALLSASASQSPMEDQGEMEREVKSPGARHCYQDNQDLAVPHNRKSHPQPHSALHFPAAPRFIQKLRSQEVAEGSRVYLECRVTGNPTPRVRWFCEGKELHNTPDIQIHCEGGDLHTLIIAEAFEDDTGRYTCLATNPSGSDTTSAEVFIEGASSTDSDSESLAFKSRAGAMPQAQKKTTSVSLTIGSSSPKTGVTTAVIQPLSVPVQQVHSPTSYLCRPDGTTTAYFPPVFTKELQNTAVAEGQVVVLECRVRGAPPLQVQWFRQGSEIQDSPDFRILQKKPRSTAEPEEICTLVIAETFPEDAGIFTCSARNDYGSATSTAQLVVTSANTENCSYESMGESNNDHFQHFPPPPPILETSSLELASKKPSEIQQVNNPELGLSRAALQMQFNAAERETNGVHPSRGVNGLINGKANSNKSLPTPAVLLSPTKEPPPLLAKPKLDPLKLQQLQNQIRLEQEAGARQPPPAPRSAPPSPPFPPPPAFPELAACTPPASPEPMSALASRSAPAMQSSGSFNYARPKQFIAAQNLGPASGHGTPASSPSSSSLPSPMSPTPRQFGRAPVPPFAQPFGAEPEAPWGSSSPSPPPPPPPVFSPTAAFPVPDVFPLPPPPPPLPSPGQASHCSSPATRFGHSQTPAAFLSALLPSQPPPAAVNALGLPKGVTPAGFPKKASRTARIASDEEIQGTKDAVIQDLERKLRFKEDLLNNGQPRLTYEERMARRLLGADSATVFNIQEPEEETANQEYKVSSCEQRLISEIEYRLERSPVDESGDEVQYGDVPVENGMAPFFEMKLKHYKIFEGMPVTFTCRVAGNPKPKIYWFKDGKQISPKSDHYTIQRDLDGTCSLHTTASTLDDDGNYTIMAANPQGRISCTGRLMVQAVNQRGRSPRSPSGHPHVRRPRSRSRDSGDENEPIQERFFRPHFLQAPGDLTVQEGKLCRMDCKVSGLPTPDLSWQLDGKPVRPDSAHKMLVRENGVHSLIIEPVTSRDAGIYTCIATNRAGQNSFSLELVVAAKEAHKPPVFIEKLQNTGVADGYPVRLECRVLGVPPPQIFWKKENESLTHSTDRVSMHQDNHGYICLLIQGATKEDAGWYTVSAKNEAGIVSCTARLDVYTQWHQQSQSTKPKKVRPSASRYAALSDQGLDIKAAFQPEANPSHLTLNTALVESEDL",2.50,2.31
